The values below come from patent US12679878B2, “CRF2 receptor agonists and their use in therapy” (SANOFI, priority 2020, dated 2026).

In this test the target is human corticotropin-releasing factor 2α (CRF2 α receptor) (human), Q13324. The experiment in a line: cell-based or functional assay.

Starred links: 1 amine or outer side, 2 acyl side, 3 side chain; linkers in the order of their positions; H or OH if unused. Groups on a side chain read outwards from the residue. No end group written: not given here. *: point of attachment. C18 diacid = O=C(O)CCCCCCCCCCCCCCCCC(=O)*; γGlu = O=C(O)[C@H](CCC(=O)[*:2])N[*:1]; Palmitoyl = CCCCCCCCCCCCCCCC(=O)*; AEEA = NCCOCCOCC(=O)O

human corticotropin-releasing factor 2α (CRF2 α receptor) (human), Q13324, sequence (Q13324 20-411): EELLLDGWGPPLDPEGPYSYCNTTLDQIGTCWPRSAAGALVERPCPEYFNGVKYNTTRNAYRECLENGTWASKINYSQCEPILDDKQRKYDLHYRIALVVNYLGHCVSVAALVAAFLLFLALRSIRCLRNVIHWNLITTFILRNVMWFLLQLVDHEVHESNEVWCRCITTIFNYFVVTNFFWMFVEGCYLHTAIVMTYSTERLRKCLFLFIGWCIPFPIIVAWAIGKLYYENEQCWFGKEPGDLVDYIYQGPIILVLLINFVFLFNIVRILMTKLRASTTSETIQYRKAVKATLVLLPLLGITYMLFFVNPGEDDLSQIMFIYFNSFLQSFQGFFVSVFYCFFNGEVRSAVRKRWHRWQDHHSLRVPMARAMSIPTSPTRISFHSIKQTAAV

B1: SEQ ID NO: 63 (peptide)
peptide: FTLSLDVPIKLKQILLEQQKQKKERQQAETNVQLLERV-NH2
modifications: not fully specified (residue 12); printed as FTLSLDVPIKLK*QILLEQQKQKKERQQAETNVQLLERV-NH2
With B1, the EC50 [nM], 0% HSA is 0.63 nM.

B2: SEQ ID NO: 3 (peptide)
peptide: IVLSLDVPIKLK([γGlu-Palmitoyl])KILLEQEKQEKEKQQAEKNAQILAQV-NH2
modifications: N-terminus assumed
SMILES: CCCCCCCCCCCCCCCC(=O)N[C@@H](CCC(=O)NCCCC[C@H](NC(=O)[C@H](CC(C)C)NC(=O)[C@H](CCCCN)NC(=O)[C@@H](NC(=O)[C@@H]1CCCN1C(=O)[C@@H](NC(=O)[C@H](CC(=O)O)NC(=O)[C@H](CC(C)C)NC(=O)[C@H](CO)NC(=O)[C@H](CC(C)C)NC(=O)[C@@H](NC(=O)[C@@H](N)[C@@H](C)CC)C(C)C)C(C)C)[C@@H](C)CC)C(=O)N[C@@H](CCCCN)C(=O)N[C@H](C(=O)N[C@@H](CC(C)C)C(=O)N[C@@H](CC(C)C)C(=O)N[C@@H](CCC(=O)O)C(=O)N[C@@H](CCC(N)=O)C(=O)N[C@@H](CCC(=O)O)C(=O)N[C@@H](CCCCN)C(=O)N[C@@H](CCC(N)=O)C(=O)N[C@@H](CCC(=O)O)C(=O)N[C@@H](CCCCN)C(=O)N[C@@H](CCC(=O)O)C(=O)N[C@@H](CCCCN)C(=O)N[C@@H](CCC(N)=O)C(=O)N[C@@H](CCC(N)=O)C(=O)N[C@@H](C)C(=O)N[C@@H](CCC(=O)O)C(=O)N[C@@H](CCCCN)C(=O)N[C@@H](CC(N)=O)C(=O)N[C@@H](C)C(=O)N[C@@H](CCC(N)=O)C(=O)N[C@H](C(=O)N[C@@H](CC(C)C)C(=O)N[C@@H](C)C(=O)N[C@@H](CCC(N)=O)C(=O)N[C@H](C(N)=O)C(C)C)[C@@H](C)CC)[C@@H](C)CC)C(=O)O
Regarding B2, the EC50 [nM], 0% HSA worked out at 0.01 nM.

B3: SEQ ID NO: 64 (peptide)
peptide: FTLSLDVPTKIKQILLKQQKQKKERQKAETNVQLLERV-NH2
modifications: not fully specified (residue 12); printed as FTLSLDVPTKIK*QILLKQQKQKKERQKAETNVQLLERV-NH2
In turn, B3 returned an EC50 [nM], 0% HSA of 13.2 nM.

B4: SEQ ID NO: 65 (peptide)
peptide: FTLSLDVPIGLKQILLKQQKQKKERQQAETNVQLLERV-NH2
modifications: not fully specified (residue 12); printed as FTLSLDVPIGLK*QILLKQQKQKKERQQAETNVQLLERV-NH2
B4 gave an EC50 [nM], 0% HSA of 9.31 nM.

B5: SEQ ID NO: 59 (peptide)
peptide: FTLSLDVPTKIKQILLKQQKQKKERQQAEKNKQLLEQI-NH2
modifications: not fully specified (residue 12); printed as FTLSLDVPTKIK*QILLKQQKQKKERQQAEKNKQLLEQI-NH2
On to B5, for which the EC50 [nM], 0% HSA was found to be 0.15 nM and the EC50 [nM], 0.1% HSA turned out to be 17.4 nM.

B6: SEQ ID NO: 56 (peptide)
peptide: FTLSLDVPIGLK([AEEA-AEEA-γGlu-C18 diacid])QILLKQQKQKKERQQAETNVQLLERV-NH2
modifications: N-terminus assumed
SMILES: CC[C@H](C)[C@H](NC(=O)[C@H](CCC(N)=O)NC(=O)[C@H](CCCCNC(=O)COCCOCCNC(=O)COCCOCCNC(=O)CC[C@H](NC(=O)CCCCCCCCCCCCCCCCC(=O)O)C(=O)O)NC(=O)[C@H](CC(C)C)NC(=O)CNC(=O)[C@@H](NC(=O)[C@@H]1CCCN1C(=O)[C@@H](NC(=O)[C@H](CC(=O)O)NC(=O)[C@H](CC(C)C)NC(=O)[C@H](CO)NC(=O)[C@H](CC(C)C)NC(=O)[C@@H](NC(=O)[C@@H](N)Cc1ccccc1)[C@@H](C)O)C(C)C)[C@@H](C)CC)C(=O)N[C@@H](CC(C)C)C(=O)N[C@@H](CC(C)C)C(=O)N[C@@H](CCCCN)C(=O)N[C@@H](CCC(N)=O)C(=O)N[C@@H](CCC(N)=O)C(=O)N[C@@H](CCCCN)C(=O)N[C@@H](CCC(N)=O)C(=O)N[C@@H](CCCCN)C(=O)N[C@@H](CCCCN)C(=O)N[C@@H](CCC(=O)O)C(=O)N[C@@H](CCCNC(=N)N)C(=O)N[C@@H](CCC(N)=O)C(=O)N[C@@H](CCC(N)=O)C(=O)N[C@@H](C)C(=O)N[C@@H](CCC(=O)O)C(=O)N[C@H](C(=O)N[C@@H](CC(N)=O)C(=O)N[C@H](C(=O)N[C@@H](CCC(N)=O)C(=O)N[C@@H](CC(C)C)C(=O)N[C@@H](CC(C)C)C(=O)N[C@@H](CCC(=O)O)C(=O)N[C@@H](CCCNC(=N)N)C(=O)N[C@H](C(N)=O)C(C)C)C(C)C)[C@@H](C)O
In the case of B6, the EC50 [nM], 0% HSA is 22.9 nM.

B7: SEQ ID NO: 57 (peptide)
peptide: FTLSLDVPIGLK([AEEA-AEEA-γGlu-C18 diacid])QILLKQQKQKKERQKAETNVQLLERV-NH2
modifications: N-terminus assumed
SMILES: CC[C@H](C)[C@H](NC(=O)[C@H](CCC(N)=O)NC(=O)[C@H](CCCCNC(=O)COCCOCCNC(=O)COCCOCCNC(=O)CC[C@H](NC(=O)CCCCCCCCCCCCCCCCC(=O)O)C(=O)O)NC(=O)[C@H](CC(C)C)NC(=O)CNC(=O)[C@@H](NC(=O)[C@@H]1CCCN1C(=O)[C@@H](NC(=O)[C@H](CC(=O)O)NC(=O)[C@H](CC(C)C)NC(=O)[C@H](CO)NC(=O)[C@H](CC(C)C)NC(=O)[C@@H](NC(=O)[C@@H](N)Cc1ccccc1)[C@@H](C)O)C(C)C)[C@@H](C)CC)C(=O)N[C@@H](CC(C)C)C(=O)N[C@@H](CC(C)C)C(=O)N[C@@H](CCCCN)C(=O)N[C@@H](CCC(N)=O)C(=O)N[C@@H](CCC(N)=O)C(=O)N[C@@H](CCCCN)C(=O)N[C@@H](CCC(N)=O)C(=O)N[C@@H](CCCCN)C(=O)N[C@@H](CCCCN)C(=O)N[C@@H](CCC(=O)O)C(=O)N[C@@H](CCCNC(=N)N)C(=O)N[C@@H](CCC(N)=O)C(=O)N[C@@H](CCCCN)C(=O)N[C@@H](C)C(=O)N[C@@H](CCC(=O)O)C(=O)N[C@H](C(=O)N[C@@H](CC(N)=O)C(=O)N[C@H](C(=O)N[C@@H](CCC(N)=O)C(=O)N[C@@H](CC(C)C)C(=O)N[C@@H](CC(C)C)C(=O)N[C@@H](CCC(=O)O)C(=O)N[C@@H](CCCNC(=N)N)C(=O)N[C@H](C(N)=O)C(C)C)C(C)C)[C@@H](C)O
B7: the EC50 [nM], 0% HSA was 38.8 nM.

B8: SEQ ID NO: 62 (peptide)
peptide: FTLSLDVPIKLKQILLKQQKQKKERQQAETNVQLLERV-NH2
modifications: not fully specified (residue 12); printed as FTLSLDVPIKLK*QILLKQQKQKKERQQAETNVQLLERV-NH2
Turning to B8, the EC50 [nM], 0% HSA was 0.8 nM.

B9: SEQ ID NO: 60 (peptide)
peptide: FTLSLDVPTKIKQILLKQQKQKKERQQAEKNKQLLERV-NH2
modifications: not fully specified (residue 12); printed as FTLSLDVPTKIK*QILLKQQKQKKERQQAEKNKQLLERV-NH2
In turn, B9 returned an EC50 [nM], 0% HSA of 0.48 nM.

B10: SEQ ID NO: 61 (peptide)
peptide: FTLSLDVPTKIKQILLKQQKQKKERQQAETNKQLLERV-NH2
modifications: not fully specified (residue 12); printed as FTLSLDVPTKIK*QILLKQQKQKKERQQAETNKQLLERV-NH2
Regarding B10, the EC50 [nM], 0% HSA came out at 0.38 nM.

B11: SEQ ID NO: 58 (peptide)
peptide: FTLSLDVPTKIKQILFKQQKQKKERQQAEKNKQLLEQI-NH2
modifications: not fully specified (residue 12); printed as FTLSLDVPTKIK*QILFKQQKQKKERQQAEKNKQLLEQI-NH2
For the molecule B11, the EC50 [nM], 0% HSA turned out to be 0.28 nM.
